Reference: US20210277061A1 (UNIVERSITY OF HONG KONG, published 2021)
Read-outs that look alike come from different tables or passages of the source. No end group written: not given here. *: point of attachment. Oxazole(5-CO) = O=C(c1cnco1)*; Crotonyl(E) = C/C=C/C(=O)*; 2Furoyl = O=C(c1ccco1)*; Cbz = O=C(OCc1ccccc1)*

T1: AF9 YEATS domain, His-AF9 (1-138) (human, UniProt P42568 1-138)
T1 construct: Expressed in E. coli; not shown: His tag
T1 sequence (looked up): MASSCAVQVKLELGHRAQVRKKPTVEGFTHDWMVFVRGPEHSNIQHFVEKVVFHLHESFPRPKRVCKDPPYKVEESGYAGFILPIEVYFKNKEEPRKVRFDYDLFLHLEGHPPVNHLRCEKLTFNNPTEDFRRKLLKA

T2: ENL YEATS domain, His-SUMO-ENL (1-138) (human, UniProt Q03111 1-138)
T2 construct: Expressed in E. coli; not shown: His-SUMO tag
T2 sequence (looked up): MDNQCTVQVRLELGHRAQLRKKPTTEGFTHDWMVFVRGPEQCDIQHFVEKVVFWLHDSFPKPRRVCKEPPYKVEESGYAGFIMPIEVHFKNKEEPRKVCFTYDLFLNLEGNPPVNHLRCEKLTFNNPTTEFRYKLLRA


How the values were obtained:
[1] = target: T1, AF9 YEATS domain, His-AF9 (1-138); test: photo-cross-linking competition vs photoaffinity probe, in-gel fluorescence
[2] = target: T1, AF9 YEATS domain, His-AF9 (1-138); test: ITC
[3] = target: T1, AF9 YEATS domain, His-AF9 (1-138); test: ITC; remark: listed apart in the source
[4] = target: T1, AF9 YEATS domain, His-AF9 (1-138); test: photo-cross-linking competition vs photoaffinity probe, in-gel fluorescence; remark: listed apart in the source
[5] = target: T1, AF9 YEATS domain, His-AF9 (1-138); test: photo-cross-linking competition screen at 0.3 µM, in-gel fluorescence
[6] = target: T2, ENL YEATS domain, His-SUMO-ENL (1-138); test: photo-cross-linking competition vs photoaffinity probe, in-gel fluorescence

| Binder | IC50 [1] [nM] | further results |
| --- | --- | --- |
| KQTARK(Oxazole(5-CO))STGG-NH2 (N-terminus assumed; SMILES C[C@H](NC(=O)[C@@H](NC(=O)[C@H](CCC(N)=O)NC(=O)[C@@H](N)CCCCN)[C@@H](C)O)C(=O)N[C@@H](CCCNC(=N)N)C(=O)N[C@@H](CCCCNC(=O)c1cnco1)C(=O)N[C@@H](CO)C(=O)N[C@H](C(=O)NCC(=O)NCC(N)=O)[C@@H](C)O, also called 4.13) [compound 13 (XL-13)] | 740 | Kd [2]: 1000 nM; N (sites) [2]: 1.04 sites; ΔH [2]: -12.3 kcal/mol; ΔS [2]: -13.8 cal/mol/deg; fold binding enhancement over the native crotonyl group (H3K9cr) [3]: 14.8 fold |
| KQTARKSTGG-NH2 (not fully specified (residue 6); also: Lys6 acylated with group R, structure drawing only, also called 4.12) [compound 12 (XL-12)] | 10400 |  |
| KQTARK(3‑furancarbonyl)STGG-NH2 (also called 4.8) [compound 8 (XL-08)] | 1700 |  |
| KQTARKSTGG-NH2 (not fully specified (residue 6); also: Lys6 acylated with group R, structure drawing only, also called 4.3) [compound 3 (XL-03)] | 22100 |  |
| H-KQTARK(2Furoyl)-NH2 (SMILES C[C@H](NC(=O)[C@@H](NC(=O)[C@H](CCC(N)=O)NC(=O)[C@@H](N)CCCCN)[C@@H](C)O)C(=O)N[C@@H](CCCNC(=N)N)C(=O)N[C@@H](CCCCNC(=O)c1ccco1)C(N)=O, also called 4.7i) [compound 25 (XL-07i)] | 460 |  |
| KQTARKSTGG-NH2 (not fully specified (residue 6); also: Lys6 acylated with group R, structure drawing only, also called 4.10) [compound 10 (XL-10)] | 10600 |  |
| KQTARKSTGG-NH2 (not fully specified (residue 6); also: Lys6 acylated with group R, structure drawing only, also called 4.15) [compound 15 (XL-15)] | 24500 |  |
| H-QTARK(2Furoyl)-NH2 (SMILES C[C@H](NC(=O)[C@@H](NC(=O)[C@@H](N)CCC(N)=O)[C@@H](C)O)C(=O)N[C@@H](CCCNC(=N)N)C(=O)N[C@@H](CCCCNC(=O)c1ccco1)C(N)=O, also called 4.7h) [compound 24 (XL-07h)] | 4500 |  |
| Cbz-QSARK(2Furoyl)-NH2 (SMILES C[C@H](NC(=O)[C@H](CO)NC(=O)[C@H](CCC(N)=O)NC(=O)OCc1ccccc1)C(=O)N[C@@H](CCCNC(=N)N)C(=O)N[C@@H](CCCCNC(=O)c1ccco1)C(N)=O, Full structure only as drawing) [compound 55 (competitor T6-S)] | 780 | IC50 [4]: 778 nM |
| Cbz-QTAQK(2Furoyl)-NH2 (SMILES C[C@H](NC(=O)[C@@H](NC(=O)[C@H](CCC(N)=O)NC(=O)OCc1ccccc1)[C@@H](C)O)C(=O)N[C@@H](CCC(N)=O)C(=O)N[C@@H](CCCCNC(=O)c1ccco1)C(N)=O, Full structure only as drawing) [compound 45 (competitor R8-Q)] |  | binding result [5]: binds |
| Cbz-QTWRK(2Furoyl)-NH2 (SMILES C[C@@H](O)[C@H](NC(=O)[C@H](CCC(N)=O)NC(=O)OCc1ccccc1)C(=O)N[C@@H](Cc1c[nH]c2ccccc12)C(=O)N[C@@H](CCCNC(=N)N)C(=O)N[C@@H](CCCCNC(=O)c1ccco1)C(N)=O, Full structure only as drawing) [compound 49 (competitor A7-W)] | 320 | IC50 [4]: 315 nM |
| Cbz-QTLRK(2Furoyl)-NH2 (SMILES CC(C)C[C@H](NC(=O)[C@@H](NC(=O)[C@H](CCC(N)=O)NC(=O)OCc1ccccc1)[C@@H](C)O)C(=O)N[C@@H](CCCNC(=N)N)C(=O)N[C@@H](CCCCNC(=O)c1ccco1)C(N)=O, Full structure only as drawing) [compound 47 (competitor A7-L)] | 340 | IC50 [4]: 338 nM |
| Cbz-QAARK(2Furoyl)-NH2 (SMILES C[C@H](NC(=O)[C@H](C)NC(=O)[C@H](CCC(N)=O)NC(=O)OCc1ccccc1)C(=O)N[C@@H](CCCNC(=N)N)C(=O)N[C@@H](CCCCNC(=O)c1ccco1)C(N)=O, Full structure only as drawing) [compound 53 (competitor T6-A)] | 720 | IC50 [4]: 715 nM |
| Cbz-QTAKK(2Furoyl)-NH2 (SMILES C[C@H](NC(=O)[C@@H](NC(=O)[C@H](CCC(N)=O)NC(=O)OCc1ccccc1)[C@@H](C)O)C(=O)N[C@@H](CCCCN)C(=O)N[C@@H](CCCCNC(=O)c1ccco1)C(N)=O, Full structure only as drawing) [compound 43 (competitor R8-K)] |  | binding result [5]: binds |
| KQTARK(4‑oxazolecarbonyl)STGG-NH2 (also called 4.14) [compound 14 (XL-14)] | 3000 |  |
| KQTARKSTGG-NH2 (not fully specified (residue 6); also: Lys6 acylated with group R, structure drawing only, also called 4.16) [compound 16 (XL-16)] | 12600 |  |
| QTARK(2Furoyl)-NH2 (not fully specified (N-terminus), Full structure only as drawing) [compound 74 (competitor Cbz-4)] | 230 | IC50 [4]: 226 nM |
| Cbz-QTARK(2Furoyl)-NH2 (SMILES C[C@H](NC(=O)[C@@H](NC(=O)[C@H](CCC(N)=O)NC(=O)OCc1ccccc1)[C@@H](C)O)C(=O)N[C@@H](CCCNC(=N)N)C(=O)N[C@@H](CCCCNC(=O)c1ccco1)C(N)=O) [peptide control (competitor control)] |  | IC50 [4]: 189 nM |
| KQTARK(2Furoyl)STGG-NH2 (N-terminus assumed; SMILES C[C@H](NC(=O)[C@@H](NC(=O)[C@H](CCC(N)=O)NC(=O)[C@@H](N)CCCCN)[C@@H](C)O)C(=O)N[C@@H](CCCNC(=N)N)C(=O)N[C@@H](CCCCNC(=O)c1ccco1)C(=O)N[C@@H](CO)C(=O)N[C@H](C(=O)NCC(=O)NCC(N)=O)[C@@H](C)O, also called 4.7) [compound 7 (XL-07)] | 1300 | Kd [2]: 3300 nM; N (sites) [2]: 0.91 sites; ΔH [2]: -12.2 kcal/mol; ΔS [2]: -15.9 cal/mol/deg; fold binding enhancement over the native crotonyl group (H3K9cr) [3]: 4.5 fold |
| KQTARK(isonicotinoyl)STGG-NH2 (also called 4.5) [compound 5 (XL-05)] | 2100 |  |
| KQTARK(cyclopentanecarbonyl)STGG-NH2 (also called 4.17) [compound 86 (negative control), XL-17] | 34500 |  |
| KQTARKSTGG-NH2 (not fully specified (residue 6); also: Lys6 acylated with group R, structure drawing only, also called 4.11) [compound 11 (XL-11)] | 15700 |  |
| KQTARK(2‑pyrimidinecarbonyl)STGG-NH2 (also called 4.6) [compound 6 (XL-06)] | 3700 |  |
| KQTARK(Arg)STGG-NH2 (also: Lys6 acylated with group R, shown only as a drawing, also called 4.9) [compound 9 (XL-09)] | 6500 |  |
| KQTARK(Crotonyl(E))STGG-NH2 (N-terminus assumed; SMILES C/C=C/C(=O)NCCCC[C@H](NC(=O)[C@H](CCCNC(=N)N)NC(=O)[C@H](C)NC(=O)[C@@H](NC(=O)[C@H](CCC(N)=O)NC(=O)[C@@H](N)CCCCN)[C@@H](C)O)C(=O)N[C@@H](CO)C(=O)N[C@H](C(=O)NCC(=O)NCC(N)=O)[C@@H](C)O) [compound 85 (positive control), H3K9cr peptide] | 6000 | IC50 [6]: 52700 nM; Kd [2]: 14700 nM; N (sites) [2]: 0.96 sites; ΔH [2]: -11.9 kcal/mol; ΔS [2]: -17.8 cal/mol/deg; Kd [3]: 14800 nM |
| KQTARKSTGG-NH2 (not fully specified (residue 6); also: Lys6 acylated with group R, structure drawing only, also called 4.2) [compound 2 (XL-02)] | 29800 |  |
| KQTARKSTGG-NH2 (not fully specified (residue 6); also: Lys6 acylated with group R, structure drawing only, also called 4.4) [compound 4 (XL-04)] | 22200 |  |
